Non-standard residues stand in square brackets, D forms with d. Phe(3,4,5-F3) = N[C@@H](Cc1cc(F)c(F)c(F)c1)C(=O)O; 2Pal = N[C@@H](Cc1ccccn1)C(=O)O; Ac6c = NC1(C(=O)O)CCCCC1
T1: Y1 receptor (human), P25929
T1 chain: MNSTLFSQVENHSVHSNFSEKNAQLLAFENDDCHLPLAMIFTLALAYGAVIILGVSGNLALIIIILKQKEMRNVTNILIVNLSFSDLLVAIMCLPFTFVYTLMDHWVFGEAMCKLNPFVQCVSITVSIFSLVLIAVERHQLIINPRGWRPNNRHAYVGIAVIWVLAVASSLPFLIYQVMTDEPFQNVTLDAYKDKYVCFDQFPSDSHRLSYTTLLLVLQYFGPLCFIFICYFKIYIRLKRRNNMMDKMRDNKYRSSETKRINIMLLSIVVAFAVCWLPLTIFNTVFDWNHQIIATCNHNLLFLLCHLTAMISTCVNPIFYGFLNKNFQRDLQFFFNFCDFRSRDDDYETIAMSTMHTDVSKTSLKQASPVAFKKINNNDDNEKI

T2: Y2 receptor (human), P49146
T2 chain: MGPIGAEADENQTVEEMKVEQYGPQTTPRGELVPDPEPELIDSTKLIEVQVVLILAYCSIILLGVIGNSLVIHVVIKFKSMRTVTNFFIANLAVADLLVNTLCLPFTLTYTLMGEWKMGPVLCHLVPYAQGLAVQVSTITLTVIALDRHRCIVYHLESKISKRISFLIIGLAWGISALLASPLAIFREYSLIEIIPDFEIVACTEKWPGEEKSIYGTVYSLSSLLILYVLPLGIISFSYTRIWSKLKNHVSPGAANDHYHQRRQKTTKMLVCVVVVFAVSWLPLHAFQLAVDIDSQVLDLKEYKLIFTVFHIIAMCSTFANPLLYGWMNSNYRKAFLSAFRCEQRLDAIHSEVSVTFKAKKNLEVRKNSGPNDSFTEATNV

T3: Y2 receptor (human, UniProt P49146 1-381)
T3 construct: whole, on cells; Assayed as membrane homogenates of SK-N-BE2 cells, not intact cells
T3 sequence (looked up): T2 chain

T4: Y1 receptor (human, UniProt P25929 1-384)
T4 construct: whole, on cells; Assayed as membrane homogenates of SK-N-MC cells, not intact cells; also called NPY Y1
T4 sequence (looked up): T1 chain

B1: Ac-[(3,4,5-F)Phe^27]hPYY(22-36)NH2 (peptide)
peptide: Ac-ASLRH[Phe(3,4,5-F3)]LNLVTRQRY-NH2
SMILES: CC(=O)N[C@@H](C)C(=O)N[C@@H](CO)C(=O)N[C@@H](CC(C)C)C(=O)N[C@@H](CCCNC(=N)N)C(=O)N[C@@H](Cc1c[nH]cn1)C(=O)N[C@@H](Cc1cc(F)c(F)c(F)c1)C(=O)N[C@@H](CC(C)C)C(=O)N[C@@H](CC(N)=O)C(=O)N[C@@H](CC(C)C)C(=O)N[C@H](C(=O)N[C@H](C(=O)N[C@@H](CCCNC(=N)N)C(=O)N[C@@H](CCC(N)=O)C(=O)N[C@@H](CCCNC(=N)N)C(=O)N[C@@H](Cc1ccc(O)cc1)C(N)=O)[C@@H](C)O)C(C)C
B2: Ac-[2Pal^26]hPYY(22-36)NH2 (peptide)
peptide: Ac-ASLR[2Pal]YLNLVTRQRY-NH2
SMILES: CC(=O)N[C@@H](C)C(=O)N[C@@H](CO)C(=O)N[C@@H](CC(C)C)C(=O)N[C@@H](CCCNC(=N)N)C(=O)N[C@@H](Cc1ccccn1)C(=O)N[C@@H](Cc1ccc(O)cc1)C(=O)N[C@@H](CC(C)C)C(=O)N[C@@H](CC(N)=O)C(=O)N[C@@H](CC(C)C)C(=O)N[C@H](C(=O)N[C@H](C(=O)N[C@@H](CCCNC(=N)N)C(=O)N[C@@H](CCC(N)=O)C(=O)N[C@@H](CCCNC(=N)N)C(=O)N[C@@H](Cc1ccc(O)cc1)C(N)=O)[C@@H](C)O)C(C)C
notes: Synthetic analog of human PYY(22-36)
B3: Ac-[A6C^28, Leu^31]hPYY(24-36)NH2 (peptide)
peptide: Ac-LRHY[Ac6c]NLLTRQRY-NH2
SMILES: CC(=O)N[C@@H](CC(C)C)C(=O)N[C@@H](CCCNC(=N)N)C(=O)N[C@@H](Cc1c[nH]cn1)C(=O)N[C@@H](Cc1ccc(O)cc1)C(=O)NC1(C(=O)N[C@@H](CC(N)=O)C(=O)N[C@@H](CC(C)C)C(=O)N[C@@H](CC(C)C)C(=O)N[C@H](C(=O)N[C@@H](CCCNC(=N)N)C(=O)N[C@@H](CCC(N)=O)C(=O)N[C@@H](CCCNC(=N)N)C(=O)N[C@@H](Cc2ccc(O)cc2)C(N)=O)[C@@H](C)O)CCCCC1
notes: Also carries Leu at 31 (residue 8 of the peptide), already in the entry
B4: Ac-[A6C^24, Leu^31]hPYY(24-36)NH2 (peptide)
peptide: Ac-[Ac6c]RHYLNLLTRQRY-NH2
SMILES: CC(=O)NC1(C(=O)N[C@@H](CCCNC(=N)N)C(=O)N[C@@H](Cc2c[nH]cn2)C(=O)N[C@@H](Cc2ccc(O)cc2)C(=O)N[C@@H](CC(C)C)C(=O)N[C@@H](CC(N)=O)C(=O)N[C@@H](CC(C)C)C(=O)N[C@@H](CC(C)C)C(=O)N[C@H](C(=O)N[C@@H](CCCNC(=N)N)C(=O)N[C@@H](CCC(N)=O)C(=O)N[C@@H](CCCNC(=N)N)C(=O)N[C@@H](Cc2ccc(O)cc2)C(N)=O)[C@@H](C)O)CCCCC1
notes: as for B3
B5: Ac-[A6C^31]hPYY(24-36)NH2 (peptide)
peptide: Ac-LRHYLNL[Ac6c]TRQRY-NH2
SMILES: CC(=O)N[C@@H](CC(C)C)C(=O)N[C@@H](CCCNC(=N)N)C(=O)N[C@@H](Cc1c[nH]cn1)C(=O)N[C@@H](Cc1ccc(O)cc1)C(=O)N[C@@H](CC(C)C)C(=O)N[C@@H](CC(N)=O)C(=O)N[C@@H](CC(C)C)C(=O)NC1(C(=O)N[C@H](C(=O)N[C@@H](CCCNC(=N)N)C(=O)N[C@@H](CCC(N)=O)C(=O)N[C@@H](CCCNC(=N)N)C(=O)N[C@@H](Cc2ccc(O)cc2)C(N)=O)[C@@H](C)O)CCCCC1
notes: Synthetic analog of human PYY(24-36)

Columns and labels:
[1] = target: T1, Y1 receptor (human), P25929
[2] = target: T2, Y2 receptor (human), P49146
[3] = target: T3, Y2 receptor; assay: radioligand competition against [125I]PYY(3-36), SK-N-BE2 membranes, Cheng-Prusoff
Experimental: (§1) The final pellets were resuspended in approximately 20 ml of 50 mM Tris-HCl containing 5.0 mM MgCl₂, 0.1 mg/ml bacitracin, and 0.1% BSA (Buffer B), and held on ice for the receptor binding assay.
(§2) For assay, aliquots (0.4 ml) of the foregoing suspensions were incubated with 0.05 ml of 0.05 nM [¹²⁵I-Leu³¹, Pro³⁴]PYY (Y1 receptor) or [¹²⁵I]PYY(3-36) (Y2 receptor), (each ˜2200 Ci/mmol, New England Nuclear) in Buffer B, with or without 0.05 ml a solution (ranging from 0.01 nM -1000 nM) of an unlabeled competing peptide. After a 120 min incubation (25° C.), the bound radioligand was separated from the free by rapid filtration through GF/C filters, previously soaked in 0.3% polyethyleneimine. […] Inhibition constants (K₁,) were calculated using the well-known Cheng-Prusoff equation.

[4] = target: T4, Y1 receptor; assay: radioligand competition against [125I-Leu31,Pro34]PYY, SK-N-MC membranes, Cheng-Prusoff
Experimental: as §1, §2

Binder	Ki [1] [nM]	Ki [2] [nM]	Ki [3] [nM]	Ki [4] [nM]
B1	< 2000	< 1000	–	–
B2	–	–	< 1000	< 2000
B3	–	–	< 1000	< 2000
B4	–	–	< 1000	< 2000
B5	–	–	< 1000	< 2000
